By Kd is commonly meant the concentration at which binding is half-saturated.

Assay in all cases: IEDB peptide-MHC binding, purified MHC/competitive/radioactivity; filed as Kd, often an IC50 or EC50 that approximates it; ≥ and ≤ were set here for values at or beyond the usual limits of such assays
Assay [1] concerns the target HLA-B*18:01.
Assay [2] deals with HLA-B*40:01.
The target of assay [3] is HLA-B*40:02.
Assay [4] addresses HLA-B*44:02.
For assay [5], the target named is HLA-B*44:03.
For assay [6], the target named is HLA-B*45:01.
The target of assay [7] is HLA-A*02:01. As to conditions: source organism: Homo sapiens.
The mark [8] stands for this setting: source organism: SARS coronavirus Tor2.
The mark [9] stands for this setting: source organism: Mammarenavirus brazilense.
Where [10] appears, read: source organism: Mammarenavirus guanaritoense.
The mark [11] stands for this setting: source organism: Mammarenavirus machupoense.
[12] abbreviates: source organism: Lymphocytic choriomeningitis virus (strain Armstrong).

A value given as a limit tells only on which side of the number the result lay.

Consider AEWVLAYMLF, for which the Kd in assay [1] (setting [8]) was determined as 0.327 µM; in assay [2] (setting [8]), 0.152 µM; in assay [3] (setting [8]), 0.0192 µM; in assay [4] (setting [8]) it was 0.0162 µM; in assay [5] (setting [8]), 0.00916 µM; in assay [6] (setting [8]), 0.041 µM.
For DESGLNISGY, the Kd in assay [1] (setting [9]) was 0.199 µM; in assay [2] (setting [9]) it was no less than 69.5 µM; in assay [3] (setting [9]), no less than 70.8 µM; in assay [4] (setting [9]), 12.8 µM; in assay [5] (setting [9]) it was 7.83 µM; in assay [6] (setting [9]), no less than 70 µM.
Consider SLRVLAAGL, for which the Kd in assay [7] is no less than 50 µM.
Regarding FEVLAVEDT, the Kd in assay [1] (setting [8]) was 3.4 µM; in assay [2] (setting [8]) it was 10.9 µM; in assay [3] (setting [8]), 1.87 µM; in assay [4] (setting [8]) it was no less than 47.9 µM; in assay [5] (setting [8]), 13.5 µM; in assay [6] (setting [8]), 11.6 µM.
Turning to RELNGGAVT, the Kd is no less than 53.3 µM in assay [1] (setting [8]); 0.212 µM in assay [2] (setting [8]); 0.0219 µM in assay [3] (setting [8]); 9.11 µM in assay [4] (setting [8]); 7.29 µM in assay [5] (setting [8]); 0.0439 µM in assay [6] (setting [8]).
Regarding TEQFINYCL, the Kd in assay [1] (setting [10]) was found to be 0.399 µM; in assay [2] (setting [10]) it was 0.306 µM; in assay [3] (setting [10]) it was 0.0323 µM; in assay [4] (setting [10]), 0.1 µM; in assay [5] (setting [10]) it was 0.416 µM; in assay [6] (setting [10]), 0.129 µM.
For DESKKEINLL, the Kd in assay [1] (setting [11]) was 2.88 µM; in assay [2] (setting [11]), no less than 69.5 µM; in assay [3] (setting [11]), no less than 70.8 µM; in assay [4] (setting [11]) it was no less than 70.2 µM; in assay [5] (setting [11]), no less than 70.1 µM; in assay [6] (setting [11]), no less than 70 µM.
As for METDFLELAM, the dissociation constant Kd in assay [1] (setting [8]) was found to be 0.0376 µM; in assay [2] (setting [8]), 0.0156 µM; in assay [3] (setting [8]), 0.289 µM; in assay [4] (setting [8]), 0.0243 µM; in assay [5] (setting [8]) it was 0.0109 µM; in assay [6] (setting [8]) it was 0.123 µM.
With CEEMLDNRAT, the Kd in assay [1] (setting [8]) was no less than 46.1 µM; in assay [2] (setting [8]), 18.3 µM; in assay [3] (setting [8]), 8.59 µM; in assay [4] (setting [8]), 0.56 µM; in assay [5] (setting [8]), 10.3 µM; in assay [6] (setting [8]), 0.139 µM.
With PDTTYLGPL, the Kd was no less than 75.3 µM in assay [1] (setting [12]); no less than 76.1 µM in assay [2] (setting [12]); no less than 77.2 µM in assay [3] (setting [12]); no less than 77.9 µM in assay [4] (setting [12]); no less than 78.1 µM in assay [5] (setting [12]); no less than 21.9 µM in assay [6] (setting [12]).
Regarding GESVKTQFNY, the Kd is no less than 20.1 µM in assay [1] (setting [8]); 11.6 µM in assay [2] (setting [8]); 0.486 µM in assay [3] (setting [8]); 0.479 µM in assay [4] (setting [8]); 0.295 µM in assay [5] (setting [8]); 7.63 µM in assay [6] (setting [8]).
With AENDIVEAL, the Kd in assay [1] (setting [9]) is 10.8 µM; in assay [2] (setting [9]), 0.00587 µM; in assay [3] (setting [9]), 0.0252 µM; in assay [4] (setting [9]), 0.0435 µM; in assay [5] (setting [9]), 0.108 µM; in assay [6] (setting [9]), 1.03 µM.
As for REAVESCPLM, the Kd in assay [1] (setting [12]) stood at 3.04 µM; in assay [2] (setting [12]), 0.105 µM; in assay [3] (setting [12]) it was 0.00986 µM; in assay [4] (setting [12]), 0.525 µM; in assay [5] (setting [12]), 2.18 µM; in assay [6] (setting [12]), 8.14 µM.
Turning to WEILKFLITG, the Kd is no less than 41.6 µM in assay [1] (setting [8]); 19 µM in assay [2] (setting [8]); 0.542 µM in assay [3] (setting [8]); 8.58 µM in assay [4] (setting [8]); 2.93 µM in assay [5] (setting [8]); 1.17 µM in assay [6] (setting [8]).

Values taken from the Immune Epitope Database (IEDB).
